Source: the supplement of paper PMC10567573

B1: SNAP91 (parent)
chain: FSTDAFSSPPQGASPVPESSLTAD

Variants of: B1
Assay: protein stability index of a GFP-peptide fusion (GPS, HEK-293T) (PSI 1-6); higher = more stable
Settings: c terminus: a fixed tail appended
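Note: lentivirally expressed fusions sorted by FACS into six bins by GFP to DsRed ratio, PSI derived from sequencing read proportions per bin multiplied by bin number.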

Protein stability index, by site and new letter:
S14: C 3 | Q 2.75 | R 2.88 | M 2.95 | V 2.63 | K 2.9 | W 2.69 | D 3.62 | Y 2.84 | A 3.57 | G 3.3 | T 3.29 | H 3.06 | I 2.89 | E 3.27 | F 2.54 | L 3.22 | N 3
P15: T 3.17 | A 3.25 | V 3.05 | R 2.97 | K 2.43 | S 3.03 | G 2.83 | E 3.6 | H 3.5 | N 3.12 | D 3.27 | L 2.64 | I 2.67 | C 2.78 | F 2.57 | Y 2.44 | W 2.37 | Q 3.17 | M 2.72
G12: W 2.32 | F 2.6 | T 3.5 | V 2.92 | L 2.75 | I 2.68 | P 2.93 | H 2.63 | E 3.58 | K 2.73 | N 3.08 | Q 3.35 | C 2.62 | A 3.39 | M 2.58 | R 3.11 | Y 2.44 | D 3.52 | S 2.79
V16: A 3.6 | F 2.7 | G 3.66 | E 4 | D 3.12 | C 2.67
P9: K 2.92 | R 2.91 | T 2.85 | S 3.74 | Q 3.02 | E 4.35 | A 2.52 | M 2.16 | H 2.89 | L 2.65 | W 2.24 | C 2.61 | N 3.13 | D 3.96 | F 2.46 | I 2.43 | V 2.74 | G 2.76 | Y 2.45
S8: A 3.31 | W 3.44 | Y 3.39 | G 3.67 | N 2.75 | Q 2.86 | I 2.62 | F 3.22 | V 3.16 | R 2.87 | L 3.29 | P 4 | T 3.33 | H 2.75 | D 4.93 | M 3.02 | K 2.38 | C 2.75 | E 4.58
A13: Y 2.85 | G 2.99 | H 3.16 | T 3.47 | M 2.93 | W 2.72 | F 2.54 | N 3.51 | K 2.47 | I 2.52 | Q 3.11 | E 3.22 | L 2.82 | D 3.45 | R 2.77 | P 2.72 | S 3.54 | C 2.69 | V 2.75
Q11: I 3.25 | R 3.06 | E 3.9 | L 2.74 | A 3.33 | N 3.13 | T 3.75 | Y 2.22 | M 2.69 | S 4.17 | P 3.27 | H 3.43 | G 3.34 | C 2.56 | D 4.01 | F 2.68 | V 2.88 | W 2.2 | K 2.68
P10: H 2.29 | L 3.38 | E 3.23 | A 3.09 | M 2.29 | W 1.72 | V 2.73 | D 3.61 | S 2.71 | G 2.69 | R 2.55 | Y 2.18 | Q 3.24 | N 2.64 | C 2.8 | F 2.28 | T 2.73 | I 2.42 | K 3.16
S7: W 3.15 | L 2.96 | T 3.33 | M 2.84 | Y 2.9 | R 1.62 | V 2.32 | P 3.56 | N 4.22 | Q 3.77
